Data on one substance can be found in paper PMC3517456.

For one test, the target named is Gal4AD-Caf1a (UniProt Q9UIV1). Description: yeast two-hybrid (β-galactosidase reporter). The following applies: yeast strain YRG-2, LacZ reporter under five GAL4 consensus sequences; triplicate; parent: est. 8.4; read off a plot.
Another test addresses Gal4AD-Caf1b (UniProt Q9UFF9). Description: yeast two-hybrid (β-galactosidase reporter). The note with it: yeast strain YRG-2, LacZ reporter under five GAL4 consensus sequences; triplicate; parent: est. 25; read off a plot.
Sequence of UniProt Q9UFF9 (Q9UFF9 whole entry, the tested form may be a part): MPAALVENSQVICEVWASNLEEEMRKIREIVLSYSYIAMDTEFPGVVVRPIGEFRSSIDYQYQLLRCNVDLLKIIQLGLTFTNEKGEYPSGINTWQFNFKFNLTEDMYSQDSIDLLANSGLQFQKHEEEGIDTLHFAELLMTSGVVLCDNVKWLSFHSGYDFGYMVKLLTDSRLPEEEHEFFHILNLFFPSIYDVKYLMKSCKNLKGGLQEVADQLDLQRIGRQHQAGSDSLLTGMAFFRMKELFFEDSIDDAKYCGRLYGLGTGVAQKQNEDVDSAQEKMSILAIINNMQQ

Sequence of UniProt Q9UIV1 (Q9UIV1 whole entry, the tested form may be a part): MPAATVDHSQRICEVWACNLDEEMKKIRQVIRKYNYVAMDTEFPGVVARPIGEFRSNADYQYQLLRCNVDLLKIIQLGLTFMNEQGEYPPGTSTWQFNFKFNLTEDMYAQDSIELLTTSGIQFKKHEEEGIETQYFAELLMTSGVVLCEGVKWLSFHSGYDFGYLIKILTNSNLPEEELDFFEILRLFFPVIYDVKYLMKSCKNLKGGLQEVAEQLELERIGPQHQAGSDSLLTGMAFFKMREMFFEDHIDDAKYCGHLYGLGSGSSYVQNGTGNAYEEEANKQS

In the case of “Gal4-DNA binding domain-TOB1 (from UniProt P50616) H45A”, the response with Gal4AD-Caf1a was 1.7 x10^4 RLU; in the test with Gal4AD-Caf1b, 2.8 x10^4 RLU.
